B1: YHWYGYTPQNVIGRAQGKAQGKLAKLAKKLAKLAKGQAKGQARGFCGDGFYACY MDVGKQAGRQAGVSPPLTLGQLLSGQRAGQKAG (peptide)
chain: YHWYGYTPQNVIGRAQGKAQGKLAKLAKKLAKLAKGQAKGQARGFCGDGFYACYMDVGKQAGRQAGVSPPLTLGQLLSGQRAGQKAG
modifications: HA tag; MV-MS conjugate; P1 conjugate sequence: E-I-H-F
B2: FCGDGFYACYMDVGRAQGKAQGYHWYGYTPQNVIGQAKGQARGVSPPLTLGQLLSG KQAGRQAGKLAKLAKKLAKLAKGQRAGQKAG (peptide)
chain: FCGDGFYACYMDVGRAQGKAQGYHWYGYTPQNVIGQAKGQARGVSPPLTLGQLLSGKQAGRQAGKLAKLAKKLAKLAKGQRAGQKAG
modifications: HA tag; MV-MS conjugate; P2 conjugate sequence: H-E-F-I

How the values were obtained:
MB49 cells = test: Binding and internalization of P1/P2 peptides, anti-HA immunofluorescence, MB49 cells; type: cell-based; details: mouse MB49 cells (LE and WT)
Protocol: (§1) Arrows and arrowheads point to examples of internalized peptide in endosomal and late compartments, respectively.
After five minutes, internalized peptide was localized to peripheral early endosomes (arrowheads) and after 45 minutes accumulated in late endosomes/lysosomes (arrows).
FIGS. 3F-3G show the amount of cell-associated peptide as a function of time as estimated by quantitative microscopy (FIG. 3F) and as a function of dose by quantitative Western blot (FIG. 3G) with anti-HA antibodies (upper panel) followed by band densitometry of triplicates (lower panel).
(§2) The tested conjugates targeted bladder cancer cells and were internalized. See Coon et al. (2012), supra, for description of methodologies. See, e.g., FIGS. 3D and 3E. Given interspecies receptor conservation, the conjugates targeted cells of human, mouse and canine origin (FIG. 3D), and were internalized in GFP-Rab5-positive endosomes (see, e.g., FIG. 3D, mid-panel set) in a time-dependent manner (FIG. 3E).

[1] = tested on: cells isolated from spontaneous dog tumors and immortalized; test: Binding and internalization of P1/P2 peptides, anti-HA immunofluorescence, canine bladder tumor cells; type: cell-based
Text: as §1, §2

T24 cells = test: Binding and internalization of P1/P2 peptides, anti-HA immunofluorescence, T24 cells; type: cell-based; details: human T24 cells
Text: as §1, §2

[2] = tested on: MB49 wild type cancer cells; test: P2 binding in cultured MB49 wild type cancer cells, anti-HA immunostaining; type: cell-based, mouse; details: MB49 wild type cancer cells versus normal urothelium cells
Protocol: (§3) FIGS. 4A and 4B show images of immunostaining with an anti-HA antibody of normal (FIG. 4A) and MB49 wild type cancer (FIG. 4B) cells incubated with the highest concentration of P2 conjugates used.
(§4) Normal (labeled A) and MB49 wild type cancer (labeled B) cells isolated from bladder urothelium were disaggregated and cultured in vitro. Cultured cells were incubated with different concentrations of the P2 MV-MS conjugate and the presence of cell-bound peptide was investigated by immunostaining with an anti-HA antibody using the methodologies described in Example 1.

normal urothelium = test: P2 binding/uptake in cultured normal urothelium cells, anti-HA immunostaining; type: cell-based; details: different P2 concentrations
Protocol: as §3, §4

| Molecule | binding and internalization of peptide (MB49 cells) | binding and internalization of peptide [1] | binding and internalization of peptide (T24 cells) | selectivity for cancer cells [2] | binding or uptake to normal urothelium (normal urothelium) |
| --- | --- | --- | --- | --- | --- |
| B1 | bound and internalized | bound and internalized | bound and internalized |  |  |
| B2 | bound and internalized | bound and internalized | bound and internalized | marked selectivity for cancer cells | no detectable binding or uptake |

Source: US20250387497A1, “MULTIVALENT MULTISPECIFIC CONJUGATES AND RELATED COMPOSITIONS AND METHODS OF USE” (Purdue Research Foundation, priority 2022, published 2025)
